The values that follow come from US6887705B1, “Tyrosine phosphorylated cleavage furrow-associated proteins (PSTPIPs)” (Genentech, Inc., priority 1997, dated 2005).

Assay [1] has as its system PST PIP - PTP HSCF association. The assay is described as follows: Coprecipitation of PST PIP and PTP HSCF from co-transfected COS cells. Format: cell-based. Here is the method:
COS-7 cells were transfected by electroporation. Briefly, 1.5×10^6 COS-7 cells were mixed with 24 μg total DNA in PBS and electroporated at 960 μF, […] (Bio-Rad™ Gene Pulsar™). Following electroporation, cells were seeded in 10 cm dishes and incubated for 3 days. 10-cm dishes of transfected COS cells were washed twice with ice-cold PBS, and lysed in 1 ml of M-RIPA (50 mM Tris 7.4, 1% NP40, 0.25% DOC, 150 mM NaCl, 1 mM sodium ortho-vanadate, 1 mM NaF plus Complete™ Protease Inhibitors (Boehringer Mannheim)). Lysates were incubated for 15 minutes with 100 μl UltraLink Immobilized Protein A/G™ (Pierce) at 4° C., followed by centrifugation for 5 minutes. Supernatants were collected and stored at −70° C. or directly immunoprecipitated. 5 μg of M2 or 12CA5 was added to 500 μl of lysate and incubated overnight at 4° C. Ultralink Protein A/G™ was added and incubation continued for 2 hours at 4° C. The immune complexes were washed 3 times with M-RIPA. The proteins were subjected to SDS-PAGE and transferred to nitrocellulose in 1X Transfer Buffer™ (Novex). Immunoblots were blocked overnight at 4° C. in 3% milk/PBS. To detect Flag-tagged PIP, blots were incubated with 10 μg/ml Bio-M2 (Biotinylated anti-FLAG monoclonal Ab, KODAK) followed by incubation in 10 μg/ml streptavidin-HRP (UBI). To detect HA-tagged PTPhscf, blots were incubated in anti-(HA)-peroxidase (Boehringer Mannheim) as per manufacturer's instructions. To detect phosphotyrosine, blots were incubated in HRP-conjugated 4G10 (anti-phosphotyrosine monoclonal, UBI) as per manufacture's instructions.
In vitro binding analyses between various PTP HSCF and PST PIP constructs were performed as previously described (Spencer et al, (1997), supra). Briefly, plasmids were transcribed and translated in vitro using the TnT Rabbit Reticulocyte Lysate System (Promega). Samples were diluted in 50 mM HEPES, pH 7.2, 1% triton X-100, 10% glycerol, 100 mM NaCl, and 2 μg/ml each of leupeptin, pepstatin, aprotinin and PMSF (lysis buffer). Samples were than reacted with GST fusion proteins at various concentrations, and the bound proteins were centrifuged using glutathione-sepharose beads and analyzed on SDS polyacrylamide gels. C-terminally-derived peptide inhibition studies were performed by incubating the GST fusion protein binding reactions in the presence of 10 μg/ml of the indicated peptides. Peptides were produced by FMOC-protected amino acids as previously described (Spencer et al, (1997), supra). In vivo interactions between various forms of PTP HSCF and PST PIP were also performed as previously described (Spencer et al, (1997), supra). Briefly, COS cells were transfected with various constructs, and after 48 hours, lysates were prepared and immunoprecipitated with antibodies to either the FLAG epitope contained at the C-terminus of PST PIP or an HA epitope contained at the N-terminus of PTP HSCF. The resultant blots were probed with anti-FLAG to detect PST PIP, anti-HA to detect PTP HSCF or anti-phosphotyrosine to detect levels of this modified amino acid in each protein.

Assay [2] concerns CHO cells. The assay is described as follows: Confocal microscopy of PST PIP forms expressed in CHO cells. Format: cell-based, Chinese hamster. To be noted: transfected CHO cells. The protocol: Confocal microscopy was performed as previously described (Spencer et al, (1997), supra). Briefly, CHO cells in chamber slides were transfected using Lipofectamine and the indicated plasmids. 48 hours later, cells were fixed in formaldehyde and stained with an anti-FLAG epitope specific antibody (Kodak) and Fluorescein-Phalloidin (Molecular Probes). Anti-Flag stained cells were washed and stained with Cy3-conjugated sheep anti-mouse IgG. Stained cells were observed using Molecular Dynamics Confocal Microscope™ (2001) and analyzed with ImageSpace™ software (Molecular Dynamics).

For assay [3], the target named is T1, PTP HSCF (Mus musculus, UniProt Q61152).
T1 construct: the PST (and C-terminal homolog) of PTP HSCF (amino acids 304-453); made in house; host or cells: E. coli DH5-alpha
T1 sequence (Q61152 304-453): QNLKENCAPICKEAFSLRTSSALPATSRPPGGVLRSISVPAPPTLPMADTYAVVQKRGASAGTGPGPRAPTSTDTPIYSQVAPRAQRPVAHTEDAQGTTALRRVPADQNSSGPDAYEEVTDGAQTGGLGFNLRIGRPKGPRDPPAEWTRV
The assay is described as follows: In vitro GST pull-down binding of PST PIP forms to PTP HSCF.

Entries after “also recorded” stand apart in the source; their conditions may differ. Like-named read-outs stand apart in the source and are kept apart here.

B1: W232A mutant of PST PIP, C-terminal FLAG (other)
chain: MMAQLQFRDAFWCRDFTAHTGYEVLLQRLLDGRKMCKDVEELLRQRAQAEERYGKELVQIARKAGGQTEMNSLRTSFDSLKQQTENVGSAHIQLALALREELRSLEEFRERQKEQRKKYEAIMDRVQKSKLSLYKKTMESKKAYDQKCRDADDAEQAFERVSANGHQKQVEKSQNKAKQCKESATEAERVYRQNIEQLERARTEWEQEHRTTCEAFQLQEFDRLTILRNALAVHCNQLSMQCVKDDELYEEVRLTLEGCDVEGDINGFIQSKSTGREPPAPVPYQNYYDREVTPLIGSPSIQPSCGVIKRFSGLLHGSPKTTPSAPAASTETLTPTPERNELVYASIEVQATQGNLNSSAQDYRALYDYTAQNSDELDISAGDILAVILEGEDGWWTVERNGQRGFVPGSYLEKLDYKDDDDK
notes: In vitro translated or expressed in COS cells; also called W232A PST PIP; PST PIP with an alanine replacement mutation at tryptophan232
Turning to B1, the “in vivo association (coprecipitation) of PST PIP and PTP HSCF” value in assay [1] is recorded as “complete lack of in vivo association; also recorded: neither coprecipitated with PTP HSCF”. The “cellular localization of PST PIP forms (assay for correct folding)” value in assay [2] is recorded as “indistinguishable from the wild type protein”. For the same molecule, the “binding of in vitro translated PST PIP forms to GST fusion of C-terminal 149 amino acids of PTP HSCF” value in assay [3] is “complete loss of binding; also recorded: abolishes the interaction”.

B2: GST-PSTPIP (GST fusion of full-length PSTPIP, amino acids 2-415) (other)
chain: MAQLQFRDAFWCRDFTAHTGYEVLLQRLLDGRKMCKDVEELLRQRAQAEERYGKELVQIARKAGGQTEMNSLRTSFDSLKQQTENVGSAHIQLALALREELRSLEEFRERQKEQRKKYEAIMDRVQKSKLSLYKKTMESKKAYDQKCRDADDAEQAFERVSANGHQKQVEKSQNKAKQCKESATEAERVYRQNIEQLERARTEWEQEHRTTCEAFQLQEFDRLTILRNALWVHCNQLSMQCVKDDELYEEVRLTLEGCDVEGDINGFIQSKSTGREPPAPVPYQNYYDREVTPLIGSPSIQPSCGVIKRFSGLLHGSPKTTPSAPAASTETLTPTPERNELVYASIEVQATQGNLNSSAQDYRALYDYTAQNSDELDISAGDILAVILEGEDGWWTVERNGQRGFVPGSYLEKL
notes: Made in DH5-alpha bacteria from pGEX4T-2; also called GST-full-length PSTPIP; GST PTP PIP; not shown: glutathione S-transferase encoded by pGEX-4T-2 (Pharmacia)
In the case of B2, the “precipitation of in vitro translated PTP HSCF by GST fusions of PSTPIP or its domains” value in assay [3] (~1 microgram per ml GST fusion protein) was “high degree of specificity”.

B3: PSTPIP: murine PST Phosphatase Interacting Protein, 415 residues (SEQ ID NO:1) (protein)
chain: MMAQLQFRDAFWCRDFTAHTGYEVLLQRLLDGRKMCKDVEELLRQRAQAEERYGKELVQIARKAGGQTEMNSLRTSFDSLKQQTENVGSAHIQLALALREELRSLEEFRERQKEQRKKYEAIMDRVQKSKLSLYKKTMESKKAYDQKCRDADDAEQAFERVSANGHQKQVEKSQNKAKQCKESATEAERVYRQNIEQLERARTEWEQEHRTTCEAFQLQEFDRLTILRNALWVHCNQLSMQCVKDDELYEEVRLTLEGCDVEGDINGFIQSKSTGREPPAPVPYQNYYDREVTPLIGSPSIQPSCGVIKRFSGLLHGSPKTTPSAPAASTETLTPTPERNELVYASIEVQATQGNLNSSAQDYRALYDYTAQNSDELDISAGDILAVILEGEDGWWTVERNGQRGFVPGSYLEKL
modifications: Mus Musculus
In the case of B3, the “in vivo association (coprecipitation) of PST PIP and PTP HSCF” value is “found in a complex with precipitated PTP HSCF” in assay [1] (listed as PST PIP wt) and “in vivo association of the proteins” in assay [1] (listed as wild type PST PIP). The “cellular localization of PST PIP forms (assay for correct folding)” value in assay [2] is “predominantly co-localized with the cortical actin cytoskeleton”. Further, in assay [3], the “binding of in vitro translated PST PIP forms to GST fusion of C-terminal 149 amino acids of PTP HSCF” value is reported as “capable of interacting”.
